This is an account of results in patent US12576138B2, “Compounds and methods for the immobilization of myostatin-inhibitors on the extracellular matrix by transglutaminase” (JULIUS-MAXIMILIANS-UNIVERSITÄT WÜRZBURG, priority 2018, dated 2026).

Experiment [1] has as its target glutamine substrate derived from α-2 plasmin inhibitor (Homo sapiens, UniProt P08697). Kind of experiment: Transglutaminase coupling of the isolated IGF-I D chain to a glutamine substrate. It is filed as biochemical. The method, then:
Starting off by examination of the specificity and efficacy of the IGF-I D chain, the isolated sequence (PLKPAKSA) was coupled to a glutamine substrate derived from α-2 plasmin inhibitor, achieving >90% conversion within less than 10 minutes.

The target of experiment [2] is T1, myostatin (Homo sapiens, UniProt O14793).
T1 sequence (O14793 267-375): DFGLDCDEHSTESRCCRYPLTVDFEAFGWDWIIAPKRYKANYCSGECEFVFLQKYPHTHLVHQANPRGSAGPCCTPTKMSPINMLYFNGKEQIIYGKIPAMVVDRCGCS
Kind of experiment: Bioactivity of released MI: myoblast proliferation in presence of myostatin. Format: cell-based. The conditions noted are these: after release from ECM triggered by MMPs. From the text:
If a flaring inflammation in the wounded tissue occurs, accompanied by invasion of macrophages and release of MMPs, the inter-positioned PCL is cleaved, releasing the MI and instantly inhibiting the flaring inflammation and preventing apoptosis of surrounding cartilage and muscle cells.
FIG. 5: (A) Release kinetics of MI modified with a PCL—responding to elevated MMP levels—and the D chain for immobilization on ECM (“MI1”) in comparison to MI modified with the D chain at the C-terminus for direct immobilization on ECM (“MI2”). The MI was labelled with a fluorescent dye before immobilization on the ECM and the release of MI exposed to MMP-1, -8, -9 and -13 for different periods of time was analyzed by HPLC with fluorescence detection. (B) Bioactivity of released MI determined by myoblast proliferation in presence of myostatin and MI after release from ECM triggered by MMPs.

Experiment [3] concerns the target T2, fibronectin (Mus musculus, UniProt P11276).
T2 construct: The ECM was produced by NIH3T3 fibroblasts and on day 6 decellularized; endogenous in cells; host or cells: NIH3T3 fibroblasts (decellularized ECM)
Kind of experiment: FXIIIa-mediated immobilization of MI-D chain on decellularized cell-derived ECM. It is filed as biochemical. The text has this: As proof of concept, the MI with TG tag (“MI-D chain”) was immobilized onto cell derived, isolated extracellular matrix (ECM). The ECM was produced by NIH3T3 fibroblasts and on day 6 decellularized and washed to remove cell debris and adsorbed proteins.
(§1) MI-D chains were immobilized on ECM with high efficacy (FIG. 4A) and the co-localization with fibronectin confirmed using confocal laser scanning microscopy (FIG. 4B). Bioactivity of immobilized MI was confirmed by capturing myostatin using ELISA and consequently the restoration of mouse myoblast cells to differentiate in presence of myostatin (FIG. 4C, D).
(§2) FIG. 4: Immobilization of the MI-D chain on decellularized ECM. (A) Coupling efficacy in presence and absence of TG. (B) Confocal Laser Scanning Microscopy images of MI labeled with Atto594-maleimide on ECM in presence (panels A) and absence (panels B) of FXIIIa. […] (C) Amount of free myostatin after exposure to ECM with immobilized MI under different conditions measured by ELISA. (D) Bioactivity of MI immobilized on ECM determined by differentiation of myoblasts in presence of myostatin-containing medium and MI bound on ECM in presence or absence of TG.

In experiment [4] the test system is mouse myoblast cells. In words: Differentiation of myoblasts in presence of myostatin and MI bound on ECM. The conditions noted are these: MI immobilized on ECM. Format: cell-based.
Description: as §1, §2

Experiment [5] has as its target T1, myostatin. In words: Capture of myostatin by ECM-immobilized MI, measured by ELISA. Format: binding.
Description: as §1, §2

T2 sequence (P11276 33-2477): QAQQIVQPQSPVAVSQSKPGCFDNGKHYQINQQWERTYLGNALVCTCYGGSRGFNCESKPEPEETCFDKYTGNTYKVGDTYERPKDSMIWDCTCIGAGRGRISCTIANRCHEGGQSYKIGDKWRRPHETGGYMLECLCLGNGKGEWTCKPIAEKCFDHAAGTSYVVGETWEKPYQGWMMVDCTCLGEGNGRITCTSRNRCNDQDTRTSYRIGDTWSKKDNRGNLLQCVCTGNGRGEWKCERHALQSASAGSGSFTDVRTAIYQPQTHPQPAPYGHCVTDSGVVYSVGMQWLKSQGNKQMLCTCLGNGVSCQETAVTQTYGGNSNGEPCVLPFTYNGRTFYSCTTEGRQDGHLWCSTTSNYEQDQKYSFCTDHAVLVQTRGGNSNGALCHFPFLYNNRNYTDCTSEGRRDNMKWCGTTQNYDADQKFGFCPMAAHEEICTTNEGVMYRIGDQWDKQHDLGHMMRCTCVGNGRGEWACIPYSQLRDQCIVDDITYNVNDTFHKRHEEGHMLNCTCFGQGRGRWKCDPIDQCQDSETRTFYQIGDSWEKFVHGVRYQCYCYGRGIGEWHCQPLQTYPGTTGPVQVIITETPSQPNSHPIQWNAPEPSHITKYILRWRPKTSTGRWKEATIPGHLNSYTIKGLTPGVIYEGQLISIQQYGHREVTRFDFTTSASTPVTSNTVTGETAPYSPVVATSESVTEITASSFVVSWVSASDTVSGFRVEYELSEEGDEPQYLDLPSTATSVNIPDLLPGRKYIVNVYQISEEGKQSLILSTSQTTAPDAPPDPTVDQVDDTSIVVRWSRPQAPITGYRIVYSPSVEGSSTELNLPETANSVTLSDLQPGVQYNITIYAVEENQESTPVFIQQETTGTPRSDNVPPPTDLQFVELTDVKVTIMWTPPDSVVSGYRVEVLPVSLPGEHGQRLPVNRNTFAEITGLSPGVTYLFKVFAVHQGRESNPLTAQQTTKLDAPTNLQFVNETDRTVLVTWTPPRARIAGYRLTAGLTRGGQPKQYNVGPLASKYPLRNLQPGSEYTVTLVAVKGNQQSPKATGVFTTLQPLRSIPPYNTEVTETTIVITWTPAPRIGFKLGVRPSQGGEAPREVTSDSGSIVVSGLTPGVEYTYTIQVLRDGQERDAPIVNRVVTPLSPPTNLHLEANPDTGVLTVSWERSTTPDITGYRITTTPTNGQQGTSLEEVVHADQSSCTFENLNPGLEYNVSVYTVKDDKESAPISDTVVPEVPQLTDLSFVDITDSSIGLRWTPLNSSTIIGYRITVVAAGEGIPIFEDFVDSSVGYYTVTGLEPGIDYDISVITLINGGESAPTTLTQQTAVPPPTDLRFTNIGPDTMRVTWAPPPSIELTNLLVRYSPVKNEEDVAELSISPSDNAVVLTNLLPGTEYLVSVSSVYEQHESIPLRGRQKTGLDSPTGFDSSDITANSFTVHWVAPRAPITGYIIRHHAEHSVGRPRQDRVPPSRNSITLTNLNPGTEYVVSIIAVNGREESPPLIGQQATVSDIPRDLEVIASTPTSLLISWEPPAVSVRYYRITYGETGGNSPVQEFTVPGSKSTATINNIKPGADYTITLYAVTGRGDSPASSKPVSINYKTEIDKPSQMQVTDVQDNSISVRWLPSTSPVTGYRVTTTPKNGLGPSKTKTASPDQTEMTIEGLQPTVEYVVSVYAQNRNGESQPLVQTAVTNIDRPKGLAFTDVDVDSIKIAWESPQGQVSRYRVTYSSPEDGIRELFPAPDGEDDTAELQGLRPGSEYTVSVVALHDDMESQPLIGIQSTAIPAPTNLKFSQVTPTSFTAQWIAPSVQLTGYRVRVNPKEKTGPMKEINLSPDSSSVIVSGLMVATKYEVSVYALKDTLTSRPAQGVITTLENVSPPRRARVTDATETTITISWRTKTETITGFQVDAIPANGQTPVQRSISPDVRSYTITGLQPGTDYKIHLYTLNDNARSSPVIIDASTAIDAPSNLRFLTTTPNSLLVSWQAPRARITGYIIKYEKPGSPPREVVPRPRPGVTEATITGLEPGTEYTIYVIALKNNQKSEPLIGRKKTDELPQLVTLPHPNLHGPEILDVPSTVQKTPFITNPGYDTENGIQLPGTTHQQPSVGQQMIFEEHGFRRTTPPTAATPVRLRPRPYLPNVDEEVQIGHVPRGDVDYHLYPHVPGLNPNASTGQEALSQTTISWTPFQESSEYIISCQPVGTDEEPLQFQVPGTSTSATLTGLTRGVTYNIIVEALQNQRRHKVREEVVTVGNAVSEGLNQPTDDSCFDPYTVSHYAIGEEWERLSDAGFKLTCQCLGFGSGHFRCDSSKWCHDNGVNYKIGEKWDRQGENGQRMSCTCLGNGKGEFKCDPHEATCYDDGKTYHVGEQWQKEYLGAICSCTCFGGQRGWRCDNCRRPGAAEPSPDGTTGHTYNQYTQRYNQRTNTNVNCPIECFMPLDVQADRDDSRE

As for “PLKPAKSA (listed as Homo sapiens) [IGF-I D chain]”, the “time to reach >90% conversion” value in experiment [1] (coupling to glutamine substrate derived from α-2 plasmin inhibitor) is given as “less than 10 minutes”. For the same substance, the “conversion (coupling to glutamine substrate)” value in experiment [1] (within less than 10 minutes) is listed as above 90%.

As for “VATQGQCTRWPWMCPPQGWG (listed as Homo sapiens) [MI, in b165 the MI released from ECM by MMPs]”, the “bioactivity of released MI in terms of myostatin inhibition” value in experiment [2] was “bioactive”.

In the case of “MI-D chain: myostatin inhibitor with the IGF-I D chain attached at the C-terminus for direct immobilization on ECM (VATQGQCTRWPWMCPPQGWGPLKPAKSA)”, the co-localization with fibronectin entry in experiment [3] (confocal laser scanning microscopy) is reported as “confirmed”. Moreover, in experiment [3] (decellularized ECM from NIH3T3 fibroblasts, FXIIIa), the “efficacy of immobilization on ECM” value is on record as “high efficacy”. For the same substance, the “differentiation of mouse myoblast cells in presence of myostatin” value in experiment [4] is reported as “restoration”. The “bioactivity of immobilized MI by capturing myostatin” value in experiment [5] (ELISA, MI immobilized on ECM) was “confirmed”. Moreover, the “capacity to bind and inhibit myostatin after immobilization on N-terminus of fibronectin” value in experiment [5] (immobilized on ECM) was “without impairment”.
